Values belong to the binder of their own block, whether it stands above or below them.
Assays:
[1] = target: T1, type 1 IGF receptor (human, UniProt P08069 31-1367); experiment: competition binding to IGF receptors against radioactive wild type IGF; approximate KD
T1 construct: whole, on cells; also called IGF-1 receptor; IGF-1R
Protocol: 200 ul of each of these was mixed rapidly with 1.8 ml of refold buffer. Refold buffer was 1.4 M urea, 100 mM glycine, 0.5 M NaCl, 19% ethanol, 0.5 mM GSSG, 4 mM GSH, pH 9.5.

[2] = target: dihydrofolate reductase; experiment: cell-based or functional assay; parameters: unit not given beside the values

T1 sequence (P08069 31-1367): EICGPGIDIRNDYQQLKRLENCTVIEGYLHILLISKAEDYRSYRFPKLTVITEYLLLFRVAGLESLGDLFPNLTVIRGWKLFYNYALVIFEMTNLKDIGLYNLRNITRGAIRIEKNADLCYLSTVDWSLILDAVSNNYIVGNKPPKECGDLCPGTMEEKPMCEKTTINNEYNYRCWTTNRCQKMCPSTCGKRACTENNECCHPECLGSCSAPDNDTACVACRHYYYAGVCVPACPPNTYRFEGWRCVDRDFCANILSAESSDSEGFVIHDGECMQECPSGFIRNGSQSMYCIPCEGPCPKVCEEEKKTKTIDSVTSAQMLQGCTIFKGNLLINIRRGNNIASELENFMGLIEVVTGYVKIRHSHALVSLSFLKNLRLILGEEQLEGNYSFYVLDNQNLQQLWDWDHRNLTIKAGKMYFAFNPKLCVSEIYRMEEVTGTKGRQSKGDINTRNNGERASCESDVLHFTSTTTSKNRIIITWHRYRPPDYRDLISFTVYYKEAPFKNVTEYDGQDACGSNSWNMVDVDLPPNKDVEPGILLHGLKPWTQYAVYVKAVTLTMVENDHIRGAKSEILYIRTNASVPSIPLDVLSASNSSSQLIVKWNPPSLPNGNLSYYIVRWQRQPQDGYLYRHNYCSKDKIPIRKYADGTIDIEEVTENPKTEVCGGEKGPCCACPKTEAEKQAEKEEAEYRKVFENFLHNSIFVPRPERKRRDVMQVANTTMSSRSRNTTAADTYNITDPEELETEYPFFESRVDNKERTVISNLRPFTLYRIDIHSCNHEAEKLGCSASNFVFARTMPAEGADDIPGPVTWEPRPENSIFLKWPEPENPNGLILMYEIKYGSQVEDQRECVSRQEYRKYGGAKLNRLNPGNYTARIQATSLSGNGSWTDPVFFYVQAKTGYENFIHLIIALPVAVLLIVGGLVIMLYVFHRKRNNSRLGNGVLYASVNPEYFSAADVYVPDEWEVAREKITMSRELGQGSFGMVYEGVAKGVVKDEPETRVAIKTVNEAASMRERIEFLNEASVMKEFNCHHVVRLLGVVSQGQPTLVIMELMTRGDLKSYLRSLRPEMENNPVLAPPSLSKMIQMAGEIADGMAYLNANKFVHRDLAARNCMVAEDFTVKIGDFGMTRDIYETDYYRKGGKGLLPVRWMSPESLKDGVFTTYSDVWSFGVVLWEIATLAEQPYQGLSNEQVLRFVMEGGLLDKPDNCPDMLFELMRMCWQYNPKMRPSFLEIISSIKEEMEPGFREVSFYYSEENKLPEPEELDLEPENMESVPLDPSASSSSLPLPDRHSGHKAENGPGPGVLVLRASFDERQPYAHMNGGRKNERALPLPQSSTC

B3: 785IGF (ligand)
chain: MVKQIESKTAFQEALDAAGDKLVVVDFSATWCGHCKMIKPFFHSLSEKYSNVIFLEVDVDDSQDVASESEVKSMPTFQFFKKGQKVGEFSGANKEKLEATINELVGSKSGHHHHHHSAKGFVNQHLCGSHLVEALYLVCGDRGFYFNKPTGYGSSSRRAPQTGIVDECCFRSCDLRRLEMYCAPLKPAKSA
notes: also called mutTrx-IGF132
Kd [1]: ~40 nM

B4: LR3IGF-MTX (other)
chain: MFPAMPLSSLFVNGPRTLCGALVDALQFVCGDRGFYFNKPTGYGSSSRRAPQTGIVDECCFRSCDLRRLEMYCAPLKPAKSEA
modifications: methotrexate attached to amino groups; MTX:protein ratio of 2.8
IC50 (inhibition of dihydrofolate reductase) [2]: 99

Second part, the binder after the results:

Kd [1]: ~2 nM
B1: 403IGF (ligand)
chain: MTSGHHHHHHSAGVNGFVNQHLCGSHLVEALYLVCGDRGFYFNKPTGYGSSSRRAPQTGIVDECCFRSCDLRRLEMYCAPLKPAKSA
notes: also called His6-IGF

Kd [1]: ~100 nM
B2: 764IGF (ligand)
chain: MVKGKHHHHHHNGKGKSKFVNQHLCGSHLVEALYLVCGDRGFYFNKPTGYGSSSRRAPQTGIVDECCFRSCDLRRLEMYCAPLKPAKSA
notes: also called His6-K5-IGF132

— patent US20150196656A1 (IGF ONCOLOGY, published 2015)
